# Measurements as given in US20080096222.
# How the values were obtained:
# [1] = molecular target: H3-GST with the mutation K4A
# [2] = molecular target: H3-GST with the mutation R2A
protein,measurement,setting,value
myc-tagged human haspin (protein) AASLPGPGSRLFRTYGAADGRRQRRPGREAAQWFPPQDRRRFFNSSGSSDASIGDPSQSDDPDDPDDPDFPGSPVRRRRRCPGGRVPKDRPSLTVTPKRWKLRARPSLTVTPRRLGLRARPPQKCSTPCGPLRLPPFPSRDSGRLSPDLSVCGQPRDGDELGISASLFSSLASPCPGSPTPRDSVISIGTSACLVAASAVPSDLHLPEVSLDRASLPCSQEEATGGAKDTRMVHQTRASLRSVLFGLMNSGTPEDSEFRADGKNMRESCCKRKLVVGNGPEGPGLSSTGKRRATGQDSCQERGLQEAVRREHQEASVPKGRIVPRGTDRLERTRSSRKSKHQEATETSLLHSHRFKKGQKLGKDSFPTQDLTPLQNACFWTKTRASFSFHKKKIVTDVSEVCSIYTTATSLSGSLLSECSNRPVMNRTSGAPSSWHSSSMYLLSPLNTLSISNKKASDAEKVYGECSQKGPVPFSHCLPTEKLQRCEKIGEGVFGEVFQTIADHTPVAIKIIAIEGPDLVNGSHQKTFEEILPEIIISKELSLLSGEVCNRTEGFIGLNSVHCVQGSYPPLLLKAWDHYNSTKGSANDRPDFFKDDQLFIVLEFEFGGIDLEQMRTKLSSLATAKSILHQLTASLAVAEASLRFEHRDLHWGNVLLKKTSLKKLHYTLNGKSSTIPSCGLQVSIIDYTLSRLERDGIVVFCDVSMDEDLFTGDGDYQFDIYRLMKKENNNRWGEYHPYSNVLWLHYLTDKMLKQMTFKTKCNTPAMKQIKRKIQEFHRTMLNFSSATDLLCQHSLFK,phosphorylation of H3-GST by haspin (in vitro kinase assay),[1],substantially reduced phosphorylation of H3-GST by haspin
same,phosphorylation of H3-GST by haspin (in vitro kinase assay),[2],substantially reduced phosphorylation of H3-GST by haspin
